Measurements: patent US20140120109A1 (Regeneron, published 2014)

T1: cynomolgus monkey TL1A, soluble, CHO-expressed, residues 72-251 of SEQ ID NO:248 with N-terminal His6-tag (cynomolgus monkey (Macaca fascicularis), UniProt O95150 72-251 (human entry))
T1 construct: also called MfTL1A; MfTL1A (CHO)
T1 chain: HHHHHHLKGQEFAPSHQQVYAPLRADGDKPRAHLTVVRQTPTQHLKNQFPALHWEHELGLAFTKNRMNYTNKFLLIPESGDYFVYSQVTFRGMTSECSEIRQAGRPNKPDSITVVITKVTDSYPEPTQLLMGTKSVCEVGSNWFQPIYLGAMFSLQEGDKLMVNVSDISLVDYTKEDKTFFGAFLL

T2: mouse TL1A, soluble, CHO-expressed, residues 76-252 of SEQ ID NO:250 with N-terminal His6-tag (mouse, UniProt Q5UBV8 76-252)
T2 construct: also called mTL1A; mTL1A (CHO)
T2 sequence: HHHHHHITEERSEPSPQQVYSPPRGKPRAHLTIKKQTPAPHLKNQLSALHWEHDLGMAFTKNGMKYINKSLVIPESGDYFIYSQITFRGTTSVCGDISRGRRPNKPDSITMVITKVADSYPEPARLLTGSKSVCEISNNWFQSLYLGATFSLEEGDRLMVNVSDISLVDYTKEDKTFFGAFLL

T3: full length human TL1A expressed on HEK293 cells (human, UniProt O95150 1-251)
T3 construct: also called HEK293/hTL1A; cell-surface hTL1A
T3 sequence: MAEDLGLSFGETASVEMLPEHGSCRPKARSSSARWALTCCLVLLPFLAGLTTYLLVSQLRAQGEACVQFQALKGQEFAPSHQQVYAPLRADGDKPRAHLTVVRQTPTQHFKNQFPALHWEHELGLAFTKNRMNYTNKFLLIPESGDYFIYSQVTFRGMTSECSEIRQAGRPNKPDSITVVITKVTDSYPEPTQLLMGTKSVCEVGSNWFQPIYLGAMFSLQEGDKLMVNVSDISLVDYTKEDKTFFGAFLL


Tests used:
[1] = molecular target: T1, cynomolgus monkey TL1A, soluble, …; test: SPR 37C, mAb captured; kd set at 1e-6 1/s
Protocol: Measurements were conducted on a T100 BIACORE™ instrument. […] Kinetic association (kₐ) and dissociation (kd) rate constants were determined by fitting the data to a 1:1 binding model using BIAevaluation 4.1 curve fitting software (BIAcore Life Sciences). Molar concentrations of TL1A/Fhm used in the data fitting assumed a monomeric state for TL1A in solution. Binding dissociation equilibrium constants (KD) and dissociative half-lives (t_{1/2}) were calculated from the kinetic rate constants as: KD (M)=kd/kₐ; and t_{1/2} (min)=[In2/(60*kd)].

[2] = molecular target: T2, mouse TL1A, soluble, CHO-expressed, …; test: SPR 25C, mAb captured
In short: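 Biacore T100 SPR with captured mAb and soluble TL1A/Fhm analyte; ka and kd fitted to a 1:1 model assuming monomeric TL1A. KD = kd/ka; t1/2 (min) = ln2/(60·kd).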

[3] = molecular target: T3, full length human TL1A expressed on …; test: flow, HEK293/hTL1A, mAb 1 ug/ml + 0.1 ug/ml soluble hTL1A
Protocol: (§1) Human embryonic kidney 293 cells stably transfected to over-express cell-surface hTL1A were first stained in a flow cytometric experiment with eight anti-hTL1A antibodies at four concentrations (1, 0.1, 0.01, and 0.003 μg/ml). […] The lowest antibody concentration providing significant staining levels was then used in a competition binding experiment. A negative isotype control antibody (human IgG4) was used at 1 μg/ml to define the background signal. For the competition experiment, eight antibody samples, at the minimal concentrations identified above, were first treated with soluble hTL1A expressed from CHO cells at concentrations ranging from 0.03 μg/ml to 10 μg/ml. After pre-incubation for 30 min on ice, the antibody/hTL1A mixture was added to 293/HEK-hTL1A cells that had been isolated by centrifugation in a 96-well conical plate. After incubation for an additional 10 minutes on ice, the cells were washed. The secondary reagent, anti-h Fcγ-APC F(ab′)₂, was added to all wells at a 200-fold dilution to detect bound antibodies. Samples were incubated for 15 minutes on ice, away from light, and then washed. Cells were processed on an BD™ LSR II Flow Cytometer (BD Biosciences) to detect anti-hTL1A antibodies bound to the cell surface, and data were analyzed using FlowJo software (version 8.8.6; Tree Star Inc.). Maximum signal: Anti-hTL1A antibody binding in the absence of soluble hTL1A; Minimum signal: Signal recorded when […] of isotype control antibody was added in place of the anti-hTL1A antibody. NT: Not tested.

[4] = molecular target: T3, full length human TL1A expressed on …; test: flow, HEK293/hTL1A, mAb 1 ug/ml + 0.3 ug/ml soluble hTL1A
Protocol: as §1

[5] = molecular target: T3, full length human TL1A expressed on …; test: flow, HEK293/hTL1A, mAb 1 ug/ml + 0.03 ug/ml soluble hTL1A
Protocol: as §1

[6] = molecular target: T3, full length human TL1A expressed on …; test: flow, HEK293/hTL1A, mAb 1 ug/ml, no soluble hTL1A (maximum signal)
Protocol: as §1

[7] = molecular target: T3, full length human TL1A expressed on …; test: flow, HEK293/hTL1A, mAb 0.1 ug/ml + 1 ug/ml soluble hTL1A
Protocol: as §1

[8] = molecular target: T3, full length human TL1A expressed on …; test: flow, HEK293/hTL1A, mAb 0.1 ug/ml + 3 ug/ml soluble hTL1A
Protocol: as §1

[9] = molecular target: T3, full length human TL1A expressed on …; test: flow, HEK293/hTL1A, mAb 0.1 ug/ml + 0.1 ug/ml soluble hTL1A
Protocol: as §1

[10] = molecular target: T3, full length human TL1A expressed on …; test: flow, HEK293/hTL1A, mAb 0.1 ug/ml + 0.03 ug/ml soluble hTL1A
Protocol: as §1

[11] = molecular target: T3, full length human TL1A expressed on …; test: flow, HEK293/hTL1A, mAb 0.1 ug/ml, no soluble hTL1A (maximum signal)
Protocol: as §1

Kd [1]	t1/2 [1]	binding result [2]	MFI [3]	MFI [4]	MFI [5]	MFI [6]	Kd [2]	t1/2 [2]	MFI [7]	MFI [8]	MFI [9]	MFI [10]	MFI [11]	Binder
≤ 0.804 pM	≥ 192 h	–	–	–	–	–	–	–	–	–	–	–	–	H4H1818N (antibody, human IgG4 S228P, V domains shown, human IgG4(S108P) form of H2M1818N) VH: RLQLVESGGGLVKPGGSLKLSCAASGFTISDYYMSWIRQAPGKGLEWVSYIGGSGSTIYYADSVKGRFTISRDNAKNSLYLQMNSLRAEDTAVYYCAREDADSYYYYGMDVWGQGTTVTVSS VL: not shown
–	–	no binding (tested: up to 100 nM)	97.2	23.6	85.3	110	–	–	–	–	–	–	–	H4H1817N (antibody, human IgG4 S228P, V domains shown, human IgG4(S108P) form of H2M1817N) VH: QVQLQQWGAGLLKPSETLSLTCAVSGGSFSDYFWTWIRQPPGKGLEWIGEISHSGRTNYNPSLKSRVTISVDTSMSQFSLKMTSVTAADSAVYYCARDYPNWVFDYWGQGTLVTVSS VL: EIELTQSPGTLSLSPGEGATLSCRASQSVFNSYLAWYQQKPGQAPRLLIYGASRRATGIPDRFSGSGSGTDFTLTISRLEPGDFAVYFCQQYGNSPLTFGGGTKVEIK
≤ 0.93 pM	≥ 192 h	–	–	–	–	–	194 pM	0.767 h	26	22.6	132	163	116	H4H1704N (antibody, human IgG4 S228P, V domains shown, human IgG4(S108P) form of H2M1704N) VH: EVQLVESGGGLVQPGGSLRLSCAVSGFTFSSYWMSWVRQAPGKGLEWVANIKEDGSEKNYVDSVKGRFTLSSDNAKNSLYLQMNSLRAEDTAVYYCAREDYDSYYKYGMDVWGQGTAVIVSS VL: not shown
–	–	no binding (tested: up to 100 nM)	327	236	318	320	–	–	–	–	–	–	–	H4H1681N (antibody, human IgG4 S228P, V domains shown) VH: EVQLLESGGGLVQPGKSLRLSCAVSGFTFSTYGMNWVRQAPGKGLEWVSSISGTGRTTYHADSVQGRFTVSRDNSKNILYLQMNSLRADDTAVYFCTKERGDYYYGVFDYWGQGTLVTVSS VL: DIQMTQSPSTLSASVGDRVTITCRASQTISSWLAWYQQTPEKAPKLLIYAASNLQSGVPSRFSGSGSGTEFTLTISSLQPDDFATYYCQQYHRSWTFGQGTKVEIT
–	–	no binding (tested: up to 100 nM)	–	–	–	–	–	–	25.1	23.6	60.2	156	158	H4H1805N (antibody, human IgG4 S228P, V domains shown, human IgG4(S108P) form of H2M1805N) VH: QVQLQQWGAGLLKPSETLSLTCAVYGGSFTGFYWSWIRQPPGKGLEWIGEINHRGNTNYNPSLKSRVTMSVDTSKNQFSLNMISVTAADTAMYFCASPFYDFWSGSDYWGQGTLVTVSS VL: DIMLTQTPLTSPVTLGQPASISCKSSQSLVHSDGNTYLSWLQQRPGQPPRLLFYKISNRFSGVPDRFSGSGAGTDFTLKISRVEAEDVGVYYCMQATQFPLTFGGGTKVEIK
–	–	–	–	–	–	–	–	–	29.2	34.9	84.5	207	211	H4H1725P (antibody, human IgG4 S228P, V domains shown) VH: QVQLVQSGAEVKKPGASVKVSCKASGYTFTGYYMHWVRQAPGQGLEWMGWIKPKSGGTNYVQKFQGRVTMTRDTSINTAYMELNNLKSDDTAVYYCATGGSQDASDFWGQGTMVTVSS VL: DIQMTQSPSSVSASVGGRVTITCRASQDISIWLAWYQQKPGKAPNLLIYAASSLQSGVPSRFSGSGSGTDFTLTISSLQPEDFATYYCQQADSFPLTFGGGTKVEIK
–	–	–	93.1	115	80	87.2	–	–	–	–	–	–	–	H4H1745P (antibody, human IgG4 S228P, V domains shown) VH: EVQLVESGGGLVQPGGSLRLSCAASGFTFSSYAMTWVRQAPGKGLEWVSGVSGRGGSTYYADSVKGRFTISRDNSKNTLYLQMNSLRAEDTAVYYCAYWDISSFDYWGQGTLVTVSS VL: DIQLTQSPSFLSASVGDRVTITCWASQGISTYLAWYQQKPGKTPKLLIYAASTLQSGVPSRFSGSGSGTDFTLTISSLQPEDFATYYCQQFNSYPLTFGGGTKVEIK
≤ 4.45 pM	≥ 192 h	–	79.4	44.7	126	126	–	–	–	–	–	–	–	H4H1742P (antibody, human IgG4 S228P, V domains shown) VH: EVQLVESGGGLVQPGGSLRLSCAASGFTFSNYVMNWVRQAPGKGLEWVSVISGSGGSTHYADSVKGRFTISRDNSKDALYLQMNSLRAEDTAVYYCAKGPLEAYYYYNGMDVWGQGTTVTVSS VL: DIQLTQSPSFLSASVGDRVTITCWASQAISSYLAWYQHKPGRAPKLLIYSTSTLQSGVPSRFSGSGSGTEFTLTISSLQPEDFATYYCQQLNSYPTFGQGTKLEIK
–	–	–	–	–	–	–	–	–	33.7	28.9	51.1	126	127	H4H1804N (antibody, human IgG4 S228P, V domains shown, human IgG4(S108P) form of H2M1804N) VH: QVQLHQWGAGLLKPSETLSLTCAVSGVSFSDYHWAWIRQSPGKGLEWIGDINHRGRTNYNPSLKSRVTISLDTSGNPFSLKLTSVTAADTAVYYCARDFPNWVFDSWGQGILVTVSS VL: EIVLSQSPGTLSLSPGERATLSCRASQSVSSSFLAWYQQYPGQAPRLLIYGASRRATGIPDRFRGSGSGTDFTLTISRLEPEDFAVYYCQQYGSSPLTFGGGTKVENK
